{
  "source": "patent US20210260216A1",
  "about": "(OSPEDALE SAN RAFFAELE S R L, published 2021)",
  "binders": {"B1": {"name": "GSE56 (p53 dominant negative peptide) (peptide)", "peptide": "MDGWCPGRDRRTEEENFRKKEEHCPELPPGSAKRALPTSTSSSPQQKKKPLDGEYFTLKIRGRERFEMFRELNEALELKDARAAEESGDSRAHSSYPKIVS"}},
  "target": "p53 (Homo sapiens (Human), UniProt P04637 1-393)",
  "sequence (P04637 whole entry)": "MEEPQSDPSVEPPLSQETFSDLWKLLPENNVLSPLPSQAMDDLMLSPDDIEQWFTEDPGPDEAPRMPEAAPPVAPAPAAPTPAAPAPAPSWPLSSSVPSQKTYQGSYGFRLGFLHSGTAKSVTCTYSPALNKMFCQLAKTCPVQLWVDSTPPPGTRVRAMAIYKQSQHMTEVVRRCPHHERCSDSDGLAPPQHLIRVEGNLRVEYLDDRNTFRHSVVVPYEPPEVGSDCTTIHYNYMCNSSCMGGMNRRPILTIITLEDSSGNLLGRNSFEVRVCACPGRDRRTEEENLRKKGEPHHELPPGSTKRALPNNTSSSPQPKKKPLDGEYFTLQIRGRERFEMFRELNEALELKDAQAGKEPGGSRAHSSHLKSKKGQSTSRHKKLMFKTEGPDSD",
  "assay": "cell-based or functional assay",
  "data": [
    {"binder": "B1", "values": [
      {"measurement": "fold decrease in TaqMan assay of CDKN1A (p21) gene fold expression at 24 hours post-editing", "result": "~3", "unit": "fold"}
    ]}
  ]
}
